Target: SARS-CoV-2 Nucleocapsid (N) protein, wildtype, SUMO1 modified (SARS-CoV-2 | not stated)
Test: FRET or BRET

SARS-CoV-2 Nucleocapsid (N) protein, wildtype, SUMO1 modified
Kd: 460 nM

Reference: doi:10.1101/2022.05.31.494262
